What was measured:
human P2X4 [1] = molecular target: T1, human P2X4 (human, UniProt Q99571 1-388); assay: cell-based or functional assay
T1 sequence (looked up): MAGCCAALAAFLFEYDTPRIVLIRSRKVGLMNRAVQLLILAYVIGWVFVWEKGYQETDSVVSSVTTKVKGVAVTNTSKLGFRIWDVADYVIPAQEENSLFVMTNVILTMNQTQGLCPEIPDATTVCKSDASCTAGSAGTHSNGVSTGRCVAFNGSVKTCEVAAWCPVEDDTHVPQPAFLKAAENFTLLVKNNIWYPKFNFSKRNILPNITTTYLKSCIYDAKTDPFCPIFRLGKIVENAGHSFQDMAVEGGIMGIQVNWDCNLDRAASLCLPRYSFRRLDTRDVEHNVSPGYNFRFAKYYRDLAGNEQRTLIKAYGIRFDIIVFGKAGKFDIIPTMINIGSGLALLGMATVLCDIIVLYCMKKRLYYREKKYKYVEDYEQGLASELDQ

human P2X4 [2] = molecular target: T1, human P2X4; assay: cell-based or functional assay; remark: listed apart in the source

| Binder | IC50 (nM), inhibition of human P2X4 currents in electrophysiology (human P2X4 [1]) | IC50, inhibition of human P2X4 currents in electrophysiology (human P2X4 [2]) |
| --- | --- | --- |
| Antibody 4 (antibody, V domains shown) VH: not shown VL: QSVLTQPPSVSLSPGQTARITCSGDVLSKQFGYWYQQKPGQAPVVVIYNDSERPSGIPERFSGSSSGTTVTLTITGVQAEDEADYYCQSADSSGTVLFGGGTKLTVL | 3.9 nM | 3.8 nM |
| Antibody 3 (antibody, V domains shown) VH: not shown VL: SSELTQDPAASVALGQTVTITCQGDSLRSYYASWYQQKPGQAPVLVFYGKNIRPSGIPDRFSGSDSRDTASLTITGAQADDEADYYCNSRDTSGNVVFGGGTKVTVL | 50 nM | – |
| Antibody 1 (antibody, V domains shown) VH: not shown VL: SYVLTQPPSVSVSPGQTATITCSGDTLPQRYAYWYQQKPGQAPILLIYKDSERPSGIPDRFSGSSSGTTVALTISGVQAEDEADYYCQSTDTSGVVFGGGTKVTVL | 19.6 nM | – |

Source: US10829540 (AstraZeneca / MedImmune, dated 2020)
